The results in this text go back to patent US20250304712A1 (published 2025).

The chains are these.
T1: recombinant LY6K protein with histidine and Strep tags (human, UniProt Q17RY6 18-138)
T1 chain: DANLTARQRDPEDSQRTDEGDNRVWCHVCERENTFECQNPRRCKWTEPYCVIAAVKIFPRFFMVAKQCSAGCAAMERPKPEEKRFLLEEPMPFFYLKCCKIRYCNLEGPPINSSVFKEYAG

B1: murine anti-LY6K antibody 22C-G8 (antibody, V domains shown)
VH: QVQLQQPGAELAKPGASVKLSCKTSGYTFTSYWMHWVKQRPGQGFEWIGEINPSNGGANYNEKFKRKATLTVDKSSSTAYMQLRSLTSEDSAVYYCTMGGNFFFAYWGQGTSVTVSS
VL: not shown
B2: murine anti-LY6K antibody G57 (antibody, V domains shown)
VH: EVQLVESGGDLVKPGGSLKLSCAASGFTFNSYGMSWVRQTPDKRLEWVATISSGGTYTYYSDSVKGRFTISRDNAKNILYLHMSSLKSEDTAMYYCARHDWDFFDYWGQGTTLTVSS
VL: DVVMTQTPLSLPVSLGDQASISCRSSQSLVHTDGDTYLNWYLQKPGQSPKLLIYKVSNRFSGVPDRFSGSGSGTDFTLKIRRVEAEDLGVYFCSQNTHVYTFGGGTKLE
B3: murine anti-LY6K antibody 28C1 (antibody, V domains shown)
VH: QIQLVQSGPELKKPGETVKISCKTSGYTFTNFAMNWVKQTPGKGLRYMGWINTNTGEPTYVEEFKGRFAFSLETSASTAYLQISNLKNEDTATYFCTREWRRSYYFDYWGQGTSLTVSS
VL: DIQMTQTPLSLPVSLGDQASISCRSSQTILHSNGNTYLEWYLQKPGQSLKLLIYKVSNRLSGVPDRFSGSGSGTDFTLKISRVEAEDLGVYYCFQGSHDPFTFGSGTKLE

The target in the assay is T1, recombinant LY6K protein with histidine …. Briefly: QCM.
The Kd is a measure of binding affinity in units of concentration. With B1, the Kd came out at 0.243 nM. As for B2, the figure is 1.34 nM; as for B3, 0.612 nM.
